Test results as given in patent US20160159869A1 (NORTHWESTERN UNIVERSITY, published 2016).
C16 = C16 alkyl tail covalently attached at the N-terminus

What was measured:
[1] = target: Recombinant human BMP-2 (Medtronic Sofamor Danek) (human) (UniProt P12643); assay: capture of BMP-2 by a 20 µL PA gel from medium containing 25 ng BMP-2, 37 °C, 4 h, sandwich ELISA of the medium
[2] = target: T1, Human recombinant BMP-2 with hexahistidine-tag fused at the C-terminus (AdipoGen) (human, UniProt P12643 283-396); assay: SPR (Biacore 3000): His-BMP-2 captured on Ni2+-NTA chip, PA injected at pH 8.4. Fit with the 2:1 binding model. Column ka.
T1 construct: Immobilised on a Ni2+-NTA chip for SPR; also called His-BMP-2; hexahistidine-tagged BMP-2
T1 sequence: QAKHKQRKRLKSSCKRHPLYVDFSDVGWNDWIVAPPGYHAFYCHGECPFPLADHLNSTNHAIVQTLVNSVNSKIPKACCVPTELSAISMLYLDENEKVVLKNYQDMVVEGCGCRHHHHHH
Experimental: (§1) The SPR measurements were performed using a Biacore 3000 instrument (GE Healthcare, Pittsburgh, Pa.) equipped with a NTA Sensor Chip (GE Healthcare) at 25° C. HBS-P eluent buffer and HBS-EP dispenser buffer were purchased from GE Healthcare. NiCl 2 solution (500 μM in eluent buffer), elution buffer (300 mM imidazole and 500 mM NaCl in water), and regeneration buffer (10 mM HEPES, 150 mM NaCl, 0.005% polysorbate 20, 350 mM EDTA at pH 7.4) were prepared according to Biacore specifications. Human recombinant BMP-2 with hexahistidine-tag fused at the C-terminus (AdipoGen, San Diego, Calif.) was initially reconstituted in PBS at 20 μg/ml, and diluted to 500 nM in eluent buffer.
(§2) Ni²⁺ was first loaded on the NTA chip for 5 min at a flow rate of 20 μl/min, and then His-BMP-2 for 1.25 min at 4 μl/min. Afterwards, each PA sample was injected for 2 min at […], followed by 5 min dissociation at […]. […] To compare binding affinity of the PAs, the sensograms were processed and analyzed with BIAevaluation 4.1 software. The sensogram from blank injection was subtracted from the PA sensograms, and the apparent equilibrium dissociation constant KD was determined using 2:1 binding model, which assumes bivalent analyte interaction with two dissociation constants kd,1 and kd,2, where kd,1 is more dominant.

[3] = target: T1, Human recombinant BMP-2 with …; assay: SPR (Biacore 3000): His-BMP-2 captured on Ni2+-NTA chip, PA injected at pH 8.4. Fit with the 2:1 binding model. Column kd,1 (major dissociation rate constant).
Experimental: as §1, §2

[4] = target: T1, Human recombinant BMP-2 with …; assay: SPR (Biacore 3000), His-BMP-2 immobilised on Ni2+-NTA chip, PA injected at pH 8.4, 2:1 binding model, KD from the major dissociation rate and ka; diluent PA (no binding segment), prepared at pH 8.4
Experimental: As a control, the BMP-2-binding PA ([…], pH 7.4) was injected to a bare NTA-dextran chip, and we observed non-specific binding of the PA to the surface (FIG. 4). It is contemplated that the fibrillar nanostructures can be entangled to the NTA-dextran surface. To circumvent this, the BMP-2-binding PA was prepared at pH 8.4, where more glutamic acid residues are deprotonated to induce greater electrostatic repulsion between the PA molecules, and sonicated the solution to further break up the supramolecular assembly. […] The best fit was obtained by using the 2:1 binding model, which had two dissociation constants: a major dissociation constant (k_{d,1}) and a minor dissociation constant (k_{d,2}) with the ratio of their contributions (R₁/R₂).
as §1, with “Human recombinant BMP-2 with hexahistidine-tag fused at the C-terminus (AdipoGen, San Diego, Calif.) was initially reconstituted in PBS at 20 μg/ml, and diluted to 500 nM in eluent buffer.” left out

## diluted BMP-2-binding PA (D-BMP2b-PA), co-assembly of BMP2b-PA and diluent PA at 1:1 weight ratio
[1]
  amount of BMP-2 bound on the gel after 4 h: 15.5 ng

B1: diluent PA, C16-V3A3E3-COOH (peptide)
peptide: C16-VVVAAAEEE-OH
notes: In SPR it was used as a solution at pH 8.4; In the capture assay it was a 1 wt % nanofiber gel formed with CaCl2; also called diluent PA gel
[2]
  kon: 5300 M⁻¹ s⁻¹
[3]
  koff: 0.011 s⁻¹
[4]
  Kd: 2.1 µM
